The record followed here is US20050059089A1 (priority 2003, published 2005).

For one assay, the target named is T1, human GPCR135 (human, UniProt Q9NSD7 1-469).
T1 construct: Expressed in COS-7, CHO, SK-N-MC or HEK293 cells
T1 sequence: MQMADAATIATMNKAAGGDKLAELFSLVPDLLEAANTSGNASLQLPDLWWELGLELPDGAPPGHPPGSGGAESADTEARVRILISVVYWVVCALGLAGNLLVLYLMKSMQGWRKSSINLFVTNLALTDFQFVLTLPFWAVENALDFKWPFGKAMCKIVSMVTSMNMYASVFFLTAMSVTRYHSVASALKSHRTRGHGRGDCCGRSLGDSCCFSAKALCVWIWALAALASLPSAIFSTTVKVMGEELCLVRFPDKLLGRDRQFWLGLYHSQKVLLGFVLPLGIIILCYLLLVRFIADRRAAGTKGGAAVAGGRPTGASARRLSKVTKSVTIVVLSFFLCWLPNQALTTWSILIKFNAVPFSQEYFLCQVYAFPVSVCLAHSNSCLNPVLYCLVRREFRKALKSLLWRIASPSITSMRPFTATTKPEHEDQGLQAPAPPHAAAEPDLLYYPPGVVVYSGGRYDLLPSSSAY
Description: competition binding with 100 pM ^125I-relaxin3, membranes of COS-7 cells expressing human GPCR135. Here is the method: The binding assays were performed at room temperature for an incubation time of one hour. The binding mixtures were then filtered through GFC filters pre-saturated with 0.3 polyethylenimine (Sigma) and washed with cold binding buffer. […] The results were analyzed by Prism 3.0 software.

The target in assay [1] is T2, porcine GPCR142 (porcine).
T2 construct: Recombinant, in transfected cells or their membranes; also called pig GPCR142
T2 chain: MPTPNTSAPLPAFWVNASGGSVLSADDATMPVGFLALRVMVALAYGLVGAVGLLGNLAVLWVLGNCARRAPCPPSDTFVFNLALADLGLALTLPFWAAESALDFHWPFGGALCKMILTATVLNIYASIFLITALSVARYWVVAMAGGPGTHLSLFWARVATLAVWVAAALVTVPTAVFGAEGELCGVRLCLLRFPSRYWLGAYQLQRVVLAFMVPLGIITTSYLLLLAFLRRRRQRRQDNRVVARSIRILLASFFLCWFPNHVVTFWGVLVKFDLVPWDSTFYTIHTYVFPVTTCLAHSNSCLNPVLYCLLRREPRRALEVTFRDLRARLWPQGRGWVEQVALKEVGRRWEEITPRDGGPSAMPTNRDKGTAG
The experiment in a line: radioligand competition binding, recombinant receptor in transfected COS-7 cells. Here is the method: (§1) Competition binding experiments were performed to compare the ligand binding properties for recombinant monkey, mouse, bovine, and porcine GPCR142 versus that of the human GPCR142. […] The GPCR142 receptors from different species were also compared in GTPγS binding and Ca²⁺ mobilization assays.
(§2) The binding mixtures were incubated at room temperature for 1 h and then were filtered through 96-well GFC plates (Packard) and washed with ice-cold washing buffer: 50 mM Tris-HCl, pH 7.4. Fifty microliters of Microscint-40 were added to each well and the plates were counted in a Topcounter NTX (Packard).

The target in assay [2] is T3, bovine GPCR142 (bovine).
T3 construct: Recombinant, in transfected cells or their membranes; also called cow GPCR142
T3 chain: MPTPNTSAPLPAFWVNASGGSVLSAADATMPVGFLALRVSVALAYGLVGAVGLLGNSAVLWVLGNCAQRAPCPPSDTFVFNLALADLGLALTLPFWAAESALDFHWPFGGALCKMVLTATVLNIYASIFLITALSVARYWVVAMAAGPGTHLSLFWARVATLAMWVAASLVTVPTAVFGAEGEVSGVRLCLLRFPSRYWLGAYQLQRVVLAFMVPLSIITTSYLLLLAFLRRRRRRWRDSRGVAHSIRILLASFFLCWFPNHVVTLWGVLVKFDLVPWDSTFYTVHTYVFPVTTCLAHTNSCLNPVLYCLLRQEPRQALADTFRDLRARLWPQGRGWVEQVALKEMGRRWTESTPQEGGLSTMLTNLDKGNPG
The description is as above. Here is the method: as §1, §2

Assay [3] addresses T4, human GPCR142 (human, UniProt Q8TDU9 1-374).
T4 construct: Expressed in COS-7, CHO, SK-N-MC or HEK293 cells
Described as above. The procedure: as §1, §2

Assay [4] addresses T5, monkey GPCR142 (monkey (Macaca Nemestrina), UniProt Q8TDU9 1-374 (human entry)).
T5 construct: Recombinant, in transfected cells or their membranes
T5 chain: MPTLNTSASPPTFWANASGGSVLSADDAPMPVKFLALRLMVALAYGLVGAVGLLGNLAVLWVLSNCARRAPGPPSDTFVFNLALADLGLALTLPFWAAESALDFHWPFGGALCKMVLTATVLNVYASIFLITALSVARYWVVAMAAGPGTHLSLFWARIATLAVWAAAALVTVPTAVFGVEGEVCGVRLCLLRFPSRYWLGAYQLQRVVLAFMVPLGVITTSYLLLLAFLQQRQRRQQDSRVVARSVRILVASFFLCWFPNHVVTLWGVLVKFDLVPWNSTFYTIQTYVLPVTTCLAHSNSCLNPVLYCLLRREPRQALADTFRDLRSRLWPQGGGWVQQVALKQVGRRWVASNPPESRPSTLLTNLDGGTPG
The description is as above. Here is the method:
as §1, §2

Assay [5] deals with T6, mouse GPCR142 (mouse, UniProt Q7TQP4 1-414).
T6 construct: Recombinant, in transfected cells or their membranes
T6 sequence: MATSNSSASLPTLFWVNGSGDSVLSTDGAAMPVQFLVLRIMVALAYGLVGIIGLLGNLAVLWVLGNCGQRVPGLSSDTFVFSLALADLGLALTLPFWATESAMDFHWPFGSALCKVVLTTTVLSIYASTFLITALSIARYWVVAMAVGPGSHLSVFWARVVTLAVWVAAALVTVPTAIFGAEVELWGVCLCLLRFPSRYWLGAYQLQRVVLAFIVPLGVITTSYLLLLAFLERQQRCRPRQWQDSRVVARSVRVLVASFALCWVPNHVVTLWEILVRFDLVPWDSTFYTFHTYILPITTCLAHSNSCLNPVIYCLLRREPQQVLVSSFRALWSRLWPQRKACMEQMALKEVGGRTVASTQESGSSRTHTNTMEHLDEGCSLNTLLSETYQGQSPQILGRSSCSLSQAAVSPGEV
The assay is described as above. Here is the method:
as §1, §2

Assay [6] addresses Monkey, bovine, and porcine GPCR142. Description: cell-based or functional assay.
Assay [7] concerns the target T4, human GPCR142. The experiment in a line: radioligand binding assays.
The target of assay [8] is T2, porcine GPCR142. Description: cell-based or functional assay.
In assay [9] the target is T3, bovine GPCR142. Description: cell-based or functional assay.
Assay [10] deals with T4, human GPCR142. Description: cell-based or functional assay.
For assay [11], the target named is T5, monkey GPCR142. The experiment in a line: cell-based or functional assay.
Assay [12] deals with T6, mouse GPCR142. The experiment in a line: cell-based or functional assay.
The target in assay [13] is T4, human GPCR142. Description: competition binding with ^125I-relaxin3, membranes of COS-7 cells transiently expressing GPCR142. The procedure:
as §2

Values joined by “and” are separate entries in the source; they are usually repeats but may differ in a detail not shown here. Equal entries are not always repeated. No end group written: not given here.

T4 sequence (Q8TDU9 whole entry L329S): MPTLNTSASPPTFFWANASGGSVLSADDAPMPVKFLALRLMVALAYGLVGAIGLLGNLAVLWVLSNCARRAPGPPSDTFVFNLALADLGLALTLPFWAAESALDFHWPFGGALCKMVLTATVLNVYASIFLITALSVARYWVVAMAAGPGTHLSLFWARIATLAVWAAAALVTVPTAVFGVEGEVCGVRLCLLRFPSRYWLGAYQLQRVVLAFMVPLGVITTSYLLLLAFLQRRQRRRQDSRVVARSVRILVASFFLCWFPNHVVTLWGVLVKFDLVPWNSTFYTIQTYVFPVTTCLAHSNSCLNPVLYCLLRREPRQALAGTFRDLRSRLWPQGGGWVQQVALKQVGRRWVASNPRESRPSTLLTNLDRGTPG

B1: human recombinant INSL5 (ligand)
chain 1: KESVRLCGLEYIRTVIYICASSRW
chain 2: QDLQTLCCTDGCSMTDLSALC
modifications: ends and bridges not checked; cysteine pairing not given here
notes: Recombinant peptide from COS-7 cells co-transfected with furin; also called unlabeled INSL5; human INSL5
Take B1: the binding result with human GPCR135 was “no binding”.

B2: human relaxin3 (ligand)
chain 1: RAAPYGVRLCGREFIRAVIFTCGGSRW
chain 2: DVLAGLSSSCCKWGCSKSEISSLC
modifications: disulfide (positions not given here); also: A- and B-chains linked by disulfide bridges, places not given here
notes: also called unlabeled relaxin3; human recombinant relaxin3
For B2, the concentration for half-maximal inhibition (IC50) amounted to 1.59 nM in the assay with porcine GPCR142 [1]; 0.87 nM in the assay with bovine GPCR142 [2]; 1.45 nM with human GPCR142 [3]; 1.34 nM in the assay with monkey GPCR142 [4]; 5.45 nM with mouse GPCR142 [5]. Besides, the EC50, Ca^2+ mobilization with Gα16 was 50 to 100 nM in [6] and roughly 50 nM with human GPCR142 [10]. Further, the “Kd and Ki values” with human GPCR142 [7] was 1 to 2 nM. The “EC50, GTPγS binding assay” value with porcine GPCR142 [8] was 0.96 nM; in the assay with bovine GPCR142 [9], 0.45 nM; with human GPCR142 [10] it was 0.93 nM and 0.98 nM; with monkey GPCR142 [11], 1.1 nM; with mouse GPCR142 [12], 3.5 nM. For the same molecule, the “EC50, inhibition of forskolin-stimulated β-gal activity (cAMP reporter)” value with human GPCR142 [10] was 0.85 nM. Also, in the assay with human GPCR142 [13], the inhibition constant Ki was 1.2 nM.
